Values quoted from earlier work as cited in patent US20220401481A1, “DOSING REGIMENS FOR THE MOBILIZATION OF HEMATOPOIETIC STEM AND PROGENITOR CELLS” (Magenta Therapeutics, Inc., priority 2019, published 2022).

Assays:
[1] = system: neutrophil activation markers (L-selectin, CD11b, CD18, CD66); settings: 5 days of G-CSF treatment, reported by Falanga et al., Blood 1999; cited from earlier work
[2] = G-CSF; Pulsiper et al. (2009) Blood; cited from earlier work
[3] = system: T cells, B cells and NK cells; settings: cited from earlier work
[4] = 78 healthy donors mobilized with G-CSF (Chaidos et al, Blood. 2012)
[5] = Chen et al., 2019, G-CSF N = 112+, 1 LP
[6] = Devine et al, 2008, median yield of 1 LP, plerixafor N = 24, G-CSF N = 8

B1: G-CSF: Filgrastim (G-CSF), most common clinical hematopoietic stem cell mobilization protocol, five days (protein, UniProt P09919 31-207, looked up)
Granulocyte …: TPLGPASSLPQSFLLKCLEQVRKIQGDGAALQEKLVSECATYKLCHPEELVLLGHSLGIPWAPLSSCPSQALQLAGCLSQLHSGLFLYQGLLQALEGISPELGPTLDTLQLDVADFATTIWQQMEELGMAPALQPTQGAMPAFASAFQRRAGGVLVASHLQSFLEVSYRVLRHLAQP
modifications: filgrastim
- Fold increase in neutrophil activation markers [1]: ~2.7 fold
- Tolerability [2]: Majority with bone pain,
- TNC/kg donor weight, Median (range) ([3]; 40 healthy donors mobilized with G-CSF (Singhal et al, BMT. 2000)): 7.2 (3.2-14.0) ×10^8 cells
- Frequency of CD3+ T cells in graft, Median (range) [3, 4]: 45.3 (21.8-75.4) % of CD45+
- Frequency of CD4+ T cells in graft, Median (range) [3, 4]: 29.8 (12.6-56.5) % of CD45+
- Frequency of CD8+ T cells in graft, Median (range) [3, 4]: 11.8 (4.1-29.2) % of CD45+
- Frequency of CD19+ B cells in graft, Median (range) [3, 4]: 10.5 (0.9-34.8) % of CD45+
- Frequency of CD56+ NK cells in graft, Median (range) [3, 4]: 3.2 (0.5-18.4) % of CD45+
- Frequency of Tregs in graft, Median (range) [3, 4]: 3.5 (0.9-8.2) % of CD4+ T cells
- Frequency of iNKT cells in graft, Median (range) [3, 4]: 0.04 (0.00-1.07) % of CD3+
- CD3+ in graft, Median [3, 5]: 2.5e+08 kg⁻¹
- CD4+ in graft, Median [3, 5]: 1.5e+08 kg⁻¹
- CD8+ in graft, Median [3, 5]: 7e+07 kg⁻¹
- CD19+ in graft, Median [3, 5]: 5e+07 kg⁻¹
- CD34+ in graft, Median [3, 5]: 4.2e+06 kg⁻¹
- CD56+ in graft, Median [3, 5]: 1e+07 kg⁻¹
- CD3+ in graft, Median (range) [3, 6]: 1.3 (1.2-6.8) ×10^8/kg
- CD4+ in graft, Median (range) [3, 6]: 1.1 (0.7-3.2) ×10^8/kg
- CD8+ in graft, Median (range) [3, 6]: 0.4 (0.3-3.4) ×10^8/kg
- CD34+ in graft, Median (range) [3, 6]: 4.2 (2.5-18.7) ×10^6/kg
- CD56+ in graft, Median (range) [3, 6]: 0.2 (0.1-0.5) ×10^8/kg
